Positions count from the first letter of the chain named. Names and notes keep the numbering of the source.

B1: chymase C22S/M135T/P150S/S152G/Q166H/D175N/A190T/A226R (enzyme)
chain: IIGGTESKPHSRPYMAYLEIVTSNGPSKFCGGFLIRRNFVLTAAHCAGRSITVTLGAHNITEEEDTWQKLEVIKQFRHPKYNTSTLHHDIMLLKLKEKASLTLAVGTLPFPSQFNFVPPGRTCRVAGWGRTGVLKSGGDTLQEVKLRLMDPHACSHFRNFDHNLQLCVGNPRKTKSTFKGDSGGPLLCAGVAQGIVSYGRSDAKPPRVFTRISHYRPWINQILQAN
B2: chymase C22S/P38Q/H100P/L116R/F123L/Q180H/A226R/R235S (enzyme)
chain: IIGGTESKPHSRPYMAYLEIVTSNGQSKFCGGFLIRRNFVLTAAHCAGRSITVTLGAHNITEEEDTWQKLEVIKQFRHPKYNTSTLPHDIMLLKLKEKASLTRAVGTLPLPSQFNFVPPGRMCRVAGWGRTGVLKPGSDTLQEVKLRLMDPQACSHFRDFDHNLHLCVGNPRKTKSAFKGDSGGPLLCAGVAQGIVSYGRSDAKPPRVFTRISHYSPWINQILQAN
B3: chymase C22S/F41I/L99H/G151K/F173Y/Y215K/R217G/A226R (enzyme)
chain: IIGGTESKPHSRPYMAYLEIVTSNGPSKICGGFLIRRNFVLTAAHCAGRSITVTLGAHNITEEEDTWQKLEVIKQFRHPKYNTSTHHHDIMLLKLKEKASLTLAVGTLPFPSQFNFVPPGRMCRVAGWGRTGVLKPKSDTLQEVKLRLMDPQACSHYRDFDHNLQLCVGNPRKTKSAFKGDSGGPLLCAGVAQGIVSKGGSDAKPPRVFTRISHYRPWINQILQAN
B4: chymase C22S/K93Q/G119D/F173S/K192R/A226R (enzyme)
chain: B3 chain with I29F, K80Q, H86L, G106D, K137G, Y157S, K179R, K198Y, G200R
B5: chymase C22S/F41R/L99H/F173L/Y215K/A226R (enzyme)
chain: B3 chain with I29R, K137G, Y157L, G200R
B6: chymase C22S/F41V/L99H/G151T/F173Y/Y215K/A226R (enzyme)
chain: B3 chain with I29V, K137T, G200R
B7: chymase C22S/F41V/L99H/G151T/F173L/Y215K/A226R (enzyme)
chain: B3 chain with I29V, K137T, Y157L, G200R
B8: chymase C22S/F41G/L99H/G151T/F173L/Y215K/A226R (enzyme)
chain: B3 chain with I29G, K137T, Y157L, G200R
B9: chymase C22S/F41L/L99H/G151T/F173Y/Y215K/A226R (enzyme)
chain: B3 chain with I29L, K137T, G200R
B10: chymase C22S/F41G/L99H/F173L/Y215K/A226R (enzyme)
chain: B3 chain with I29G, K137G, Y157L, G200R
B11: chymase C22S/F173L/Y215H/A226R (enzyme)
chain: B3 chain with I29F, H86L, K137G, Y157L, K198H, G200R
B12: chymase C22S/L99R/F173Y/K192R/A226R (enzyme)
chain: B3 chain with I29F, H86R, K137G, K179R, K198Y, G200R
B13: chymase C22S/S189T/A226R (enzyme)
chain: B1 chain with T122M, S136P, G138S, H152Q, N159D, S176T, T177A
B14: chymase C22S/L99R/K192R/S218L/A226R (enzyme)
chain: B3 chain with I29F, H86R, K137G, Y157F, K179R, K198Y, G200R, S201L
B15: chymase C22S/F41R/L99H/G151A/F173S/Y215K/R217T/A226R (enzyme)
chain: B3 chain with I29R, K137A, Y157S, G200T
B16: chymase C22S/F173Y/A226R (enzyme)
chain: B3 chain with I29F, H86L, K137G, K198Y, G200R
B17: chymase C22S/F41R/L99H/G151T/F173Y/Y215K/A226R (enzyme)
chain: B3 chain with I29R, K137T, G200R
B18: chymase C22S/L160V/S189T/A226R (enzyme)
chain: B1 chain with T122M, S136P, G138S, L146V, H152Q, N159D, S176T, T177A
B19: chymase E21G/C22S/R61H/M135T/F173Y/D175N/A209V/A226R (enzyme)
chain: B1 chain with E6G, R49H, S136P, G138S, H152Q, F157Y, T177A, A192V
B20: chymase C22S/V138I/L160V/S189T/A226R (enzyme)
chain: B1 chain with T122M, V125I, S136P, G138S, L146V, H152Q, N159D, S176T, T177A
B21: chymase C22S/F41L/L99H/F173L/Y215K/A226R (enzyme)
chain: B3 chain with I29L, K137G, Y157L, G200R
B22: chymase C22S/S218I/A226R (enzyme)
chain: B1 chain with T122M, S136P, G138S, H152Q, N159D, T177A, S201I
B23: chymase C22S/K111E/F173L/Y215H/A226R (enzyme)
chain: B3 chain with I29F, H86L, K98E, K137G, Y157L, K198H, G200R
B24: chymase C22S/F41R/L99H/G151T/F173L/Y215K/A226R (enzyme)
chain: B3 chain with I29R, K137T, Y157L, G200R
B25: chymase C22S/F41V/L99H/F173Y/Y215K/A226R (enzyme)
chain: B3 chain with I29V, K137G, G200R
B26: chymase C22S/F41G/L99H/F173Y/Y215K/A226R (enzyme)
chain: B3 chain with I29G, K137G, G200R
B27: chymase C22S/F41L/L99H/G151T/F173L/Y215K/A226R (enzyme)
chain: B3 chain with I29L, K137T, Y157L, G200R
B28: chymase C22S/F41R/L99H/F173Y/Y215K/A226R (enzyme)
chain: B3 chain with I29R, K137G, G200R
B29: chymase C22S/V138L/A226R (enzyme)
chain: B1 chain with T122M, V125L, S136P, G138S, H152Q, N159D, T177A
B30: chymase C22S/F41G/L99H/G151T/F173Y/Y215K/A226R (enzyme)
chain: B3 chain with I29G, K137T, G200R
B31: chymase C22S/F41L/L99H/F173Y/Y215K/A226R (enzyme)
chain: B3 chain with I29L, K137G, G200R
B32: chymase C22S/F41V/L99H/F173L/Y215K/A226R (enzyme)
chain: B3 chain with I29V, K137G, Y157L, G200R
B33: chymase C22S/F41V/L99H/G151R/F173S/Y215K/A226R (enzyme)
chain: B3 chain with I29V, K137R, Y157S, G200R
B34: chymase C22S/L99R/F173Y/S218L/A226R (enzyme)
chain: B3 chain with I29F, H86R, K137G, K198Y, G200R, S201L
B35: chymase C22S/F41K/L99H/G151A/F173Y/Y215K/R217S/A226R (enzyme)
chain: B3 chain with I29K, K137A, G200S
B36: chymase C22S/F173Y/D175N/A226R (enzyme)
chain: B1 chain with T122M, S136P, G138S, H152Q, F157Y, T177A
B37: chymase C22S/L99Y/F173Y/K192R/S218L/A226R (enzyme)
chain: B3 chain with I29F, H86Y, K137G, K179R, K198Y, G200R, S201L
B38: chymase C22S/F41V/L99W/G151L/F173K/R217S/A226R (enzyme)
chain: B3 chain with I29V, H86W, K137L, Y157K, K198Y, G200S
B39: chymase C22S/A226R (enzyme)
chain: B1 chain with T122M, S136P, G138S, H152Q, N159D, T177A
B40: chymase C22S/L99H/F173Y/K192R/S218L/A226R (enzyme)
chain: B3 chain with I29F, K137G, K179R, K198Y, G200R, S201L
B41: chymase C22S/F41R/L99Y/G151T/F173K/R217S/A226R (enzyme)
chain: B3 chain with I29R, H86Y, K137T, Y157K, K198Y, G200S
B42: chymase C22S/L99H/F173I/K192R/Y215K/R217T/S218I/A226R (enzyme)
chain: B3 chain with I29F, K137G, Y157I, K179R, G200T, S201I
B43: chymase C22S/F41V/L99F/G151R/F173K/R217S/A226R (enzyme)
chain: B3 chain with I29V, H86F, K137R, Y157K, K198Y, G200S
B44: chymase F41V/L99H/G151V/F173Y/Y215K/R217G/A226R (enzyme)
chain: B3 chain with S7C, I29V, K137V
B45: chymase C22S/F41R/L99H/G151T/F173Y/Y215K/R217M/A226R (enzyme)
chain: B3 chain with I29R, K137T, G200M
B46: chymase C22S/F41I/L99W/G151L/F173K/R217S/A226R (enzyme)
chain: B3 chain with H86W, K137L, Y157K, K198Y, G200S
B47: chymase C22S/F41R/L99G/G151T/F173Y/Y215R/R217M/A226R (enzyme)
chain: B3 chain with I29R, H86G, K137T, K198R, G200M
B48: chymase C22S (enzyme)
chain: B1 chain with T122M, S136P, G138S, H152Q, N159D, T177A, R207A
B49: chymase C22S/K192R/A226R (enzyme)
chain: B1 chain with T122M, S136P, G138S, H152Q, N159D, T177A, K179R
B50: chymase C22S/F41V/L99H/G151R/F173L/Y215R/R217T/A226R (enzyme)
chain: B3 chain with I29V, K137R, Y157L, K198R, G200T

Sequence of alpha-2-marcroglobin (A2M) (P01023 24-1474): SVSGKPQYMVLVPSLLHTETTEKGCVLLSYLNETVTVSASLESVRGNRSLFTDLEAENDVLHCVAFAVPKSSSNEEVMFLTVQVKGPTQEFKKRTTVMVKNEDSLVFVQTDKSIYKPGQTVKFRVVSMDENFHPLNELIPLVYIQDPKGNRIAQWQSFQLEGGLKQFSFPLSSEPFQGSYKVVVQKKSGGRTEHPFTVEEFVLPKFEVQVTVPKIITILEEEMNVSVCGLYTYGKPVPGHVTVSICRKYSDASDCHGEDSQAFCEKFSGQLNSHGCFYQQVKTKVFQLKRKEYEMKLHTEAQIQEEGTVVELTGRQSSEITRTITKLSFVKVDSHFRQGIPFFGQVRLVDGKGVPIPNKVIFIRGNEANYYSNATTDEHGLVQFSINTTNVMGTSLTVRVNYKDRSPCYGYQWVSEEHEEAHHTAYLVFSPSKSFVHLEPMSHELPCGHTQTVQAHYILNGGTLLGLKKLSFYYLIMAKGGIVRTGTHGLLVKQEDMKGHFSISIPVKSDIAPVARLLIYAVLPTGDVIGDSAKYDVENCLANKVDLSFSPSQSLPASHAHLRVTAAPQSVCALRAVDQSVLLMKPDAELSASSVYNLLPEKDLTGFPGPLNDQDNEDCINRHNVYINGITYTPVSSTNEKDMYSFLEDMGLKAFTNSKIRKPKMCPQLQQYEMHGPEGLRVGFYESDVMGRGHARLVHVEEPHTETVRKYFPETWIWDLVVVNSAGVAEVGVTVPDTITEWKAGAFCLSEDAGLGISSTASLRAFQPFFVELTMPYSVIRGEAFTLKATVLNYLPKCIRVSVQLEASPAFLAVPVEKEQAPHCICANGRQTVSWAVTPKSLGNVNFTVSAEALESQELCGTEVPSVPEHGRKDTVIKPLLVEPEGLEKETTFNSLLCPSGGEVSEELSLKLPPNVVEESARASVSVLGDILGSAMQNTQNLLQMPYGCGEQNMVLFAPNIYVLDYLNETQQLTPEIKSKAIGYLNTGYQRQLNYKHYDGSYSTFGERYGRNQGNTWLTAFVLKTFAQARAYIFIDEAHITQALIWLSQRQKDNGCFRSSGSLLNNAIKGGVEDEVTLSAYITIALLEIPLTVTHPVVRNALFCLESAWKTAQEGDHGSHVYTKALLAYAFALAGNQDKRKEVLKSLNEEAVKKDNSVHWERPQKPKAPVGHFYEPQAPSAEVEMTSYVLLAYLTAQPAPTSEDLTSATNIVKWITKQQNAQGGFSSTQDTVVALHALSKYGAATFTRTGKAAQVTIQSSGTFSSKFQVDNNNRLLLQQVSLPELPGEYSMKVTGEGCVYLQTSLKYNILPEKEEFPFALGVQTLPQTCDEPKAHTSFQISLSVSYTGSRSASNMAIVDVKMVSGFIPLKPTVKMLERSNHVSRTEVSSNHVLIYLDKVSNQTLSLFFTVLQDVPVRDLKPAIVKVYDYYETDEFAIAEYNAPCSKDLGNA

The target in the first test is Human Factor B (human) (UniProt P00751). The test can be described thus: cell-based or functional assay.
Sequence of Human Factor B (human) (P00751 26-764 limits assumed): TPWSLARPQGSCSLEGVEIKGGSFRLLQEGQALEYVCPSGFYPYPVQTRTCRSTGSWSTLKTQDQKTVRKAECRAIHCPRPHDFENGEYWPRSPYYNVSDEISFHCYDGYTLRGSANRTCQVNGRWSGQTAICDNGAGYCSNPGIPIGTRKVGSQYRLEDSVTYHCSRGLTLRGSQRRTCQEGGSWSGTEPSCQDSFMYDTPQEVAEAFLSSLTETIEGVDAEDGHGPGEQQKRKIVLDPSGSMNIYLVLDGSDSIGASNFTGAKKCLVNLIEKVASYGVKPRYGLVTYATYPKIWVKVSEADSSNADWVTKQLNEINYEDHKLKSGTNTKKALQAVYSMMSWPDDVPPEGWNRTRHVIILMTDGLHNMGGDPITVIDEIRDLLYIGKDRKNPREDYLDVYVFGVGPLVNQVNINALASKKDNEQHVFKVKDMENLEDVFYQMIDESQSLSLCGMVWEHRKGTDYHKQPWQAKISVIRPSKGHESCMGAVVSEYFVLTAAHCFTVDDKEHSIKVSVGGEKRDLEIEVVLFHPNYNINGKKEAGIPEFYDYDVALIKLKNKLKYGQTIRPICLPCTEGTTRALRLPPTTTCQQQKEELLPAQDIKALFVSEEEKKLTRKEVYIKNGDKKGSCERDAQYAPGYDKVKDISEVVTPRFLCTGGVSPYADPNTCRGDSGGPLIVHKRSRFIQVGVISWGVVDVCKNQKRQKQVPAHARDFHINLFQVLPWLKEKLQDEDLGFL
The molecule B1 had a fB Cleavage EC50 of 3.16 µM.
The molecule B2 returned a fB Cleavage EC50 of 3.74 µM.
On the same count and under the same terms, the result for B3 reads 7.77 µM; that for B4, 7.77 µM.
Still for that read-out and setting: the same measure for B5: 6.64 µM.
On to B6, for which the fB Cleavage EC50 is 5.33 µM.
As for B7, the fB Cleavage EC50 stood at 5.42 µM.
With B8, the fB Cleavage EC50 worked out at 11.5 µM.
As for B9, the fB Cleavage EC50 came to 3.23 µM.
The molecule B10 showed a fB Cleavage EC50 of 10.2 µM.
On to B11, for which the fB Cleavage EC50 worked out at 5.99 µM.
The same measure, in the same setting: the same measure for B12: 3.28 µM; for B13: 7.98 µM; for B14: 7.51 µM.
B15 gave a fB Cleavage EC50 of 2.25 µM; a fB Cleavage, 64% A2M-depl plasma EC50 of 2.88 µM; a fB Cleavage, 64% plasma EC50 of 3.4 µM.
B16: the fB Cleavage EC50 amounted to 0.65 µM and the fB Cleavage, 80% plasma EC50 stood at 21 µM.
In turn, B17 had a fB Cleavage EC50 of 3.22 µM.
On the same count and under the same terms, the same measure for B18: 6.64 µM.
Molecule B19 gave a fB Cleavage EC50 of 1.26 µM.
Still for that read-out and setting: the result for B20 reads 7.13 µM; that for B21, 7.89 µM.
On the same count and under the same terms, the same measure for B22: 0.83 µM; for B23: 9.01 µM; for B24: 4.8 µM.
The molecule B25 displayed a fB Cleavage EC50 of 6.06 µM.
The same measure, in the same setting: the result for B26 reads 6.65 µM.
On the same count and under the same terms, the same measure for B27: 4.17 µM; for B28: 4.8 µM; for B29: 3.48 µM.
B30 yielded a fB Cleavage EC50 of 6.6 µM.
On the same count and under the same terms, the result for B31 reads 3.45 µM.
Same read-out and setting: the same measure for B32: 8.73 µM.
In turn, B33 had a fB Cleavage EC50 of 4.78 µM.
Still for that read-out and setting: the result for B34 reads 0.546 µM.
For B35, the fB Cleavage EC50 was found to be 1.31 µM; the fB Cleavage, 64% A2M-depl plasma EC50 turned out to be 5.75 µM; the fB Cleavage, 64% plasma EC50 amounted to 5.69 µM; the fB Cleavage, 80% plasma EC50 was 18.6 µM.

A further test has as its target alpha-2-marcroglobin (A2M) (UniProt P01023). Description: inhibition of the protease by the plasma inhibitor.
As for B36, the kapp turned out to be 645 M⁻¹ s⁻¹.
Still for that read-out and setting: the same measure for B37: 3130 M⁻¹ s⁻¹; for B38: 329 M⁻¹ s⁻¹.
In turn, B39 had a kapp of 812 M⁻¹ s⁻¹.
The same measure, in the same setting: the same measure for B40: 356 M⁻¹ s⁻¹.

The target of another test is EGVD/AE-ACT. Description: reaction of the protease with the serpin bait EGVD/AE-ACT.
As to B41, the k*app (second order rate constant) stood at 684.
Still for that read-out and setting: the result for B42 reads 1040; that for B43, 652.
On the same count and under the same terms, the result for B44 reads 649; that for B38, 1360; that for B45, 1500.
With B46, the k*app (second order rate constant) was 1730.
B39 returned a k*app (second order rate constant) of 77.
With B47, the k*app (second order rate constant) came to 773.
The same measure, in the same setting: the same measure for B48: 30.2; for B49: 147.
Take B50: the k*app (second order rate constant) amounted to 1130.

The values are drawn from US20240117334A1, “FACTOR B PROTEASES” (Vertex Pharmaceuticals Incorporated, priority 2021, published 2024).
